Data set [1] addresses T1, Hs CIC HMG-C1-His (Homo sapiens, UniProt Q96RK0-2;Q96RK0-2 188-288;1451-1527). Nature of the data set: EMSA; similar affinity to longer probes; 60 mM Hepes pH 7.9, 20 mM Tris-HCl pH 7.9, 300 mM KCl, 5 mM EDTA, 5 mM DTT, 12% glycerol, 1 ug poly(dI-dC), 1 ug BSA, ~1 ng probe in 20 ul; 20 min on ice; 5% native PAGE in 0.5X TBE at 4 C. The conditions noted are these: protein: recombinant; tags: His; copies: 1;1; label: 32P. In general terms: Mobility shift assays separate free from complexed probe on a gel.

Data set [2] deals with T1, Hs CIC HMG-C1-His. Nature of the data set: EMSA; 60 mM Hepes pH 7.9, 20 mM Tris-HCl pH 7.9, 300 mM KCl, 5 mM EDTA, 5 mM DTT, 12% glycerol, 1 ug poly(dI-dC), 1 ug BSA, ~1 ng probe in 20 ul; 20 min on ice; 5% native PAGE in 0.5X TBE at 4 C. Conditions: protein: recombinant; tags: His; copies: 1;1; label: 32P.

T1 sequence (Q96RK0 1097-1197, chain 1 of 2): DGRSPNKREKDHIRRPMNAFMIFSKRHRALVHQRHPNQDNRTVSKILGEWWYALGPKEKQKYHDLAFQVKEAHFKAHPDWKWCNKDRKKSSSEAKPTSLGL
T1 sequence (Q96RK0 2360-2436, chain 2 of 2): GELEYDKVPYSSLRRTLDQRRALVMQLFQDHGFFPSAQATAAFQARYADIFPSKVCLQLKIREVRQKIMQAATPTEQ

B1: ETV5 18-bp CBS (dsDNA)
DNA 1: GGTTATGAATGAAAAACC
DNA 2: GGTTTTTCATTCATAACC
For the molecule B1, the binding result with Hs CIC HMG-C1-His [1] was “binds”.

B2: CBS syn (dsDNA)
DNA 1: GGGAATTAAGTTGAATGAATAGGCTGGGCC
DNA 2: GGCCCAGCCTATTCATTCAACTTAATTCCC
Regarding B2, the binding result in the data set with Hs CIC HMG-C1-His [2] was “binds”.

The values are drawn from publication PMC5344332, “A new mode of DNA binding distinguishes Capicua from other HMG-box factors and explains its mutation patterns in cancer”.
